In patent US7063946B2, “Methods, reagents, kits and apparatus for protein function analysis” (Meso Scale Technologies, LLC., priority 2001, dated 2006):

B1: 3873932: IMAGE clone protein: MATK, megakaryocyte-associated tyrosine kinase (protein, UniProt P42679 1-507, looked up)
Megakaryocyte-associated …: MAGRGSLVSWRAFHGCDSAEELPRVSPRFLRAWHPPPVSARMPTRRWAPGTQCITKCEHTRPKPGELAFRKGDVVTILEACENKSWYRVKHHTSGQEGLLAAGALREREALSADPKLSLMPWFHGKISGQEAVQQLQPPEDGLFLVRESARHPGDYVLCVSFGRDVIHYRVLHRDGHLTIDEAVFFCNLMDMVEHYSKDKGAICTKLVRPKRKHGTKSAEEELARAGWLLNLQHLTLGAQIGEGEFGAVLQGEYLGQKVAVKNIKCDVTAQAFLDETAVMTKMQHENLVRLLGVILHQGLYIVMEHVSKGNLVNFLRTRGRALVNTAQLLQFSLHVAEGMEYLESKKLVHRDLAARNILVSEDLVAKVSDFGLAKAERKGLDSSRLPVKWTAPEALKHGKFTSKSDVWSFGVLLWEVFSYGRAPYPKMSLKEVSEAVEKGYRMEPPEGCPGPVHVLMSSCWEAEPARRPPFRKLAEKLARELRSAGAPASVSGQDADGSTSPRSQEP
B2: 3673003: IMAGE clone protein: Ephb3, Eph receptor B3 (protein, UniProt P54754 30-993, looked up)
Ephrin type-B receptor 3: LEETLMDTKWVTSELAWTSHPESGWEEVSGYDEAMNPIRTYQVCNVRESSQNNWLRTGFIWRREVQRVYVELKFTVRDCNSIPNIPGSCKETFNLFYYEADSDVASASSPFWMENPYVKVDTIAPDESFSRLDAGRVNTKVRSFGPLSKAGFYLAFQDQGACMSLISVRAFYKKCASTTAGFALFPETLTGAEPTSLVIAPGTCIANAVEVSVPLKLYCNGDGEWMVPVGACTCATGHEPAAKESQCRACPPGSYKAKQGEGPCLPCPPNSRTTSPAASICTCHNNFYRADSDSADSACTTVPSPPRGVISNVNETSLILEWSEPRDLGGRDDLLYNVICKKCRGSSGAGGPATCSRCDDNVEFVPRQLGLTERRVHISHLLAHTRYTFEVQAVNGVSGKSPLPPRYAAVNITTNQAAPSEVPTLHLHSSSGSSLTLSWAPPERPNGVILDYEMKYFEKSKGIASTVTSQKNSVQLDGLQPDARYVVQVRARTVAGYGQYSHPAEFETTSERGSGAQQLQEQLPLIVGSTVAGFVFMVVVVVIALVCLRKQRHGPDAEYTEKLQQYIAPGMKVYIDPFTYEDPNEAVREFAKEIDVSCVKIEEVIGAGEFGEVCRGRLKLPGRREVFVAIKTLKVGYTERQRRDFLSEASIMGQFDHPNIIRLEGVVTKSRPVMILTEFMENCALDSFLRLNDGQFTVIQLVGMLRGIAAGMKYLSEMNYVHRDLAARNILVNSNLVCKVSDFGLSRFLEDDPSDPTYTSSLGGKIPIRWTAPEAIAYRKFTSASDVWSYGIVMWEVMSYGERPYWDMSNQDVINAVEQDYRLPPPMDCPTALHQLMLDCWVRDRNLRPKFSQIVNTLDKLIRNAASLKVTASAPSGMSQPLLDRTVPDYTTFTTVGDWLDAIKMGRYKESFVGAGFASFDLVAQMTAEDLLRIGVTLAGHQKKILCSIQDMRLQMNQTLPVQV
B3: 3978518: IMAGE clone protein: Hck, hemopoietic cell kinase (protein, UniProt P08103 2-524, looked up)
Tyrosine-protein kinase HCK: GGRSSCEDPGCPRSEGRAPRMGCVKSRFLRDGSKASKTEPSANQKGPVYVPDPTSSSKLGPNNSNSMPPGFVEGSEDTIVVALYDYEAIHREDLSFQKGDQMVVLEEAGEWWKARSLATKKEGYIPSNYVARVNSLETEEWFFKGISRKDAERHLLAPGNMLGSFMIRDSETTKGSYSLSVRDFDPQHGDTVKHYKIRTLDSGGFYISPRSTFSSLQELVLHYKKGKDGLCQKLSVPCVSPKPQKPWEKDAWEIPRESLQMEKKLGAGQFGEVWMATYNKHTKVAVKTMKPGSMSVEAFLAEANLMKSLQHDKLVKLHAVVSQEPIFIVTEFMAKGSLLDFLKSEEGSKQPLPKLIDFSAQISEGMAFIEQRNYIHRDLRAANILVSASLVCKIADFGLARIIEDNEYTAREGAKFPIKWTAPEAINFGSFTIKSDVWSFGILLMEIVTYGRIPYPGMSNPEVIRALEHGYRMPRPDNCPEELYNIMIRCWKNRPEERPTFEYIQSVLDDFYTATESQYQQQP
B4: 3907115: IMAGE clone protein: Shc1 (protein)
chain: MNKLSGGGGRRTRVEGGQLGGEEWTRHGSFVNKPTRGWLHPNDKVMGPGVSYLVRYMGCVEVLQSMRALDFNTRTQVTREAISLVCEAVPGAKGATRRRKPCSRPLSSILGRSNLKFAGMPITLTVSTSSLNLMAADCKQIIANHHMQSISFASGGDPDTAEYVAYVAKDPVNQRACHILECPEGLAQDVISTIGQAFELRFKQYLRNPPKLVTPHDRMAGFDGSAWDEEEEEPPDHQYYNDFPGKEPPLGGVVDMRLREGAAPGAARPTAPNAQTPSHLGATLPVGQPVGGDPEVRKQMPPPPPCPGRELFDDPSYVNVQNLDKARQAVGGAGPPNPAINGSAPRDLFDMKPFEDALRVPPPPQSVSMAEQLRGEPWFHGKLSRREAEALLQLNGDFLVRESTTTPGQYVLTGLQSGQPKHLLLVDPEGVVRTKDHRFESVSHLISYHMDNHLPIISAGSELCLQQPVERKL

How the values were obtained:
[1] = tested on: autophosphorylation (phosphotyrosine); experiment: In vitro kinase library screen: autophosphorylation; format: biochemical
Description: Proteins were produced from DNA plasmids of Mock Luciferase, Promega, tyrosine kinase clone Spleen Tyrosine kinase (SYK, IMAGE ID# 3870426) and Eph receptor-A7 (EphA7, IMAGE ID# 3991628) (Incyte Genomics, CA) and immobilized on streptavidin or avidin coated NPT-IPR plates as described in the Example 7. To promote autophosphorylation in these immobilized and purified proteins, Mn++ ions were added in a 50 μl reaction containing 5 mM MgCl2, 5 mM MnCl2, 100 μM ATP, 25 mM Tris-HCl buffer pH 7.4, 0.05 mM Na3VO4, 0.004% TritonX-100, 2 mM DTT and EDTA-free protease inhibitor (Roche Molecular Biochemicals). This mixture was incubated with shaking at room temperature overnight to allow autophosphorylation. Following this incubation, wells were washed 2 times with TT-buffer and 2 times with water. Following this step, 50 ng Sulfo-TAG labeled anti-phosphotyrosine in buffer containing 25 mM Tris-HCl buffer pH 7.4, 5 mM MgCl2, 0.05 mM Na3VO4, 0.004% TritonX-100, 2 mM DTT and 0.05% IgG in a final volume of 50 μl was added followed by incubation at room temperature for 45 min. The unbound reagents were removed by one time washing with water, and the TAG label was detected in presence of 150 μl IPR assay buffer (0.4 mM Gly—Gly buffer, pH 7.8, 1 mM EDTA, 0.1 M TPA). The ECL signals were measured using an imaging plate reader.
(§1) Proteins were produced in an in vitro transcription and translation reaction as described in the Materials and Methods. […] The reaction was stopped by mixing with BB2 buffer. Biotinylated proteins from 50 μl of the mixture (representing 0.5 μl to 5 μl of TnT reaction) were immobilized onto streptavidin or avidin coated NPT-IPR plates by shaking at room temperature for 45 min. The activity of the immobilized protein towards pEY or autophosphorylation was further assayed by the methods described in examples 7 and 8.

pEY = experiment: In vitro kinase library screen: activity towards pEY; format: biochemical; conditions: 5 ul of expressed protein
Description: Proteins were produced in an in vitro transcription and translation reaction. […] The unbound components of the reaction containing endogenous kinases were removed by three washes with TT-buffer (25 mM Tris-HCl buffer pH 7.4 and 0.004% Triton), two five minutes washings with high-salt wash buffer (25 mM Tris-HCl buffer pH 7.4, 0.004% Triton, 1M NaCl and 5 mM DTT) and 3 more washes with TT-buffer. To these immobilized and purified proteins a tyrosine kinase substrate, 5 nM pEY (poly Glu-Tyr, Sigma, MO), was added in a 50 μl reaction solution containing 5 mM MgCl2, 5 mM MnCl2, 100 μM ATP, 25 mM Tris-HCl buffer pH 7.4, 0.05 mM Na3VO4, 0.004% TritonX-100, 2 mM DTT and EDTA-free protease inhibitor (Roche Molecular Biochemicals). This mixture was incubated with shaking at room temperature overnight to allow phosphorylation of the pEY substrate by the immobilized kinases. Following this incubation, 45 μl of this mixture was transferred to a streptavidin or avidin-coated NPT IPR plate coated with biotinylated anti-phosphotyrosine antibody (PY20, Zymed labs, CA) followed by incubation for 30 minutes at room temperature to allow the binding of the phosphorylated pEY substrate to the PY20 coated NPT plate. Following this binding step, 50 ng Sulfo-TAG labeled anti-phosphotyrosine in buffer containing 25 mM Tris-HCl buffer pH 7.4, 5 mM MgCl2, 0.05 mM Na3VO4, 0.004% TritonX-100, 2 mM DTT and 0.05% IgG was added followed by incubation at room temperature for 30 mm. The unbound reagents were removed by one time washing with water, and the TAG label was detected in presence of 150 μl IPR assay buffer (0.4 mM Gly-Gly buffer, pH 7.8, 1 mM EDTA, 0.1 M TPA). The ECL signals were measured using an imaging plate reader.
as §1

[2] = tested on: pooled phosphopeptide:BSA conjugates (Pools A-D); experiment: Coded multiplex phosphopeptide binding assay with pooled peptide:BSA conjugates on 4 spots
Source text: To prepare the Multi-Spot IPR plates, in this example we made use of pools of the peptide:BSA conjugates to coat each of 4 spots per well in a 96 well plate. To achieve this we made the following pools; • Pool A; EGFR-pTyr1148, IkBa-24ppC, Myc-p58Tp62S. • Pool B; EGFR-pTyr992, EGFR-pTyr1148, Smad3C. • Pool C; EGFR-pTyr1068, IkBa-24ppC, Smad3C. • Pool D; EGFR-pTyr992, EGFR-pTyr1068, Myc-p58Tp62S.
This combination of the various peptides results in any single peptide being present in two pools. Each of these four pools is then spotted on to a unique spot in a 4 spot array. In this way any single binding protein with specificity for only one of the peptides would bind to two spots; the identity of the two spots would allow the identification of the peptide involved in the binding reaction.
Typically approximately 120 fmole of peptide:BSA conjugate in 0.25 μl was deposited on each spot of a 4-spot multi-array IPR plates using a BioDot Dispenser (Bio-Dot Inc., vIrvine Calif.). At this stage, the plates were dried then used or stored under desiccated condition. A few hours prior to usage, the plates were rehydrated and blocked with 3% BSA, in PBS.
To test the system the following EST clones IMAGE # 3491843, 4237375, 4398016, 4419252, 3872466, 3907115 were obtained. These clones express the following genes βTRCP1, βTRCP2, Grb2, PLCγ, CBP and Shc1, respectively. […] These DNAs were used to produce proteins as described in the Materials and Methods. Proteins were transferred to a well of the 4 spot peptide-coated and BSA blocked ECL plates. The binding assay (using Sulfo-TAG labeled streptavidin as a detection agent) was carried our according to the procedures described in Example 11.

Molecule	ECL signal [1]	HTS signal (pEY)	Code (pattern of positive spots) [2]	Peptide determined from code [2]	ECL signal, spot A ([2]; Pool A, EGFR-pTyr1148, IkBa-24ppC, Myc-p58Tp62S)	ECL signal, spot B ([2]; Pool B, EGFR-pTyr992, EGFR-pTyr1148, Smad3C)	ECL signal, spot C ([2]; Pool C, EGFR-pTyr1068, IkBa-24ppC, Smad3C)	ECL signal, spot D ([2]; Pool D, EGFR-pTyr992, EGFR-pTyr1068, Myc-p58Tp62S)
B1	27,372	47,477						
B2	10,540	1,174						
B3	301,418	184,534						
B4			A, B	EGFR-pTyr1148	260	318	24	26
